B1: C2orf65 (parent)
chain: QLDWDELETNQQHFHALCHSLLVS

Variants of: B1
Test: protein stability index of a GFP-peptide fusion (GPS, HEK-293T) (PSI 1-6); higher = more stable
Details: c terminus: a fixed tail appended
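Note: lentivirally expressed fusions sorted by FACS into six bins by GFP to DsRed ratio, PSI derived from sequencing read proportions per bin multiplied by bin number.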

Protein stability index, by site and new letter:
F14: W 2.18 | T 3.32 | L 2.75 | G 3.51 | N 3.19 | E 3.58 | C 2.46 | D 3.95 | H 2.67 | R 2.44 | K 3.26 | Q 3.42 | P 2.87 | Y 2.34 | A 3.53 | V 2.79 | M 2.72 | I 2.48 | S 2.91
H15: Y 1.82 | F 1.36 | N 2.26 | Q 1.72 | C 1.66 | G 2.48 | D 2.64 | P 2.12 | A 1.92 | L 1.61 | E 2.78 | K 2.42 | M 2.33 | R 1.71 | T 2.28 | S 1.85 | W 1.74 | V 2.39 | I 2.36
S20: P 2.33 | H 2.57 | Y 2.05 | D 2.98 | W 1.9 | C 1.5 | A 1.79 | T 1.95 | V 2.33 | L 2.19 | K 2.04 | Q 2.03 | F 1.43 | R 1.91 | I 2.13 | M 2.27 | N 2.61 | G 2.21 | E 1.93
L17: W 2.21 | Q 3.02 | G 2.43 | K 2.69 | A 2.75 | D 4.07 | C 2.58 | V 1.74 | M 2.38 | F 1.9 | R 2.68 | S 2.58 | H 2.6 | I 2.14 | T 3.57 | Y 2.05 | N 3.12 | E 3.69 | P 3.92
A16: E 3.07 | H 2.35 | P 2.43 | W 1.53 | C 2.31 | F 2.44 | T 1.57 | K 2.91 | L 1.63 | N 1.95 | D 2.58 | R 2.22 | Y 3.02 | Q 2.27 | I 2.2 | S 2.33 | G 2.41 | V 1.86 | M 1.95
H19: P 2.65 | Y 1.94 | Q 2.67 | E 2.93 | A 1.88 | T 2.02 | L 1.04 | G 2.17 | W 1.04 | M 1.66 | S 2.07 | V 1.96 | C 2.21 | K 2.15 | R 1.94 | I 1.79 | D 2.94 | N 2.17 | F 1.69
L21: E 3.87 | G 3.04 | I 2.06 | Y 2.37 | F 2.31 | R 3.15 | H 2.87 | S 3.09 | C 1.61 | M 2.28 | V 3.04 | K 2.94 | P 2.95 | A 3.23 | T 2.93 | D 3.83 | Q 2.91 | W 2.22 | N 3.01
C18: F 2.27 | A 2.11 | G 2.2 | K 3.2 | T 2.25 | Q 2.76 | S 2.88 | Y 2.36 | V 2.21 | L 1.35 | E 3.64 | I 1.66 | D 3.62 | M 2.11 | W 2.14 | R 2.48 | N 2.96 | H 2.65 | P 2.99
H13: W 1.55 | Y 2.5 | V 1.85 | S 1.98 | T 2.51
L22: N 2.69 | A 3.29 | E 3.38 | I 2.95 | C 2.58 | H 2.69 | F 2.21 | D 3.77 | K 2.37 | M 3.01
